Results taken from patent US20230183665A1, “THERMOSTABLE GLUCOCEREBROSIDASE” (TEIKYO UNIVERSITY, priority 2020, published 2023).

B1: SGC1: soybean-derived glucocerebrosidase purified from soybean stems; identical to β-glucosidase 40, belongs to GH1; SEQ ID NO: 2 (protein)
chain: MAFRGGTMLILTMMALLEIQICSSEINRGNFPNGFVFGTASSAFQYEGAVKEDGRGPSVWDTFSHTFGKIIDFSNADVAVDQYHRYEEDIQLMKDMGMDAYRFSISWSRIFPNGYGQINQAGVDHYNKLINALLAKGIEPYVTLYHWDLPQALENKYSGWLNASIIMDFATYAETCFQKFGDRVKHWITFNEPHTFATQGYDVGLQAPGRCSILLHLFCRAGNSATEPYIVAHNVLLSHATVADIYRKKYKKIQGGSLGVAFDVIWYEPLTNTKEDIDAAQRAQDFQLGWFLDPLMFGDYPSSMRTRVGSRLPKFSQSEAALVKGSLDFVGINHYTTFYAKDNSTNLIGTLLHDSIADSGAVTLPFNGTKAISERASSIWLYIVPQSMRSLMIYIKQKYGNPPVYITENGMDDPNSIFISIKDALKDEKRIRYHTGYLSYLLASIKDGCNVKGYFVWSLLDNWEWSAGYTSRFGLYFVDYKDNLKRYPKQSVEWFKNFLKPTK
modifications: Oryza sativa L. cv. Nipponbare
B2: Imiglucerase: human-derived glucocerebrosidase produced in Chinese hamster ovary cells by gene recombination (Sanofi S. A.), belonging to GH30 (protein, UniProt P04062 40-536, looked up)
Lysosomal acid …: ARPCIPKSFGYSSVVCVCNATYCDSFDPPTFPALGTFSRYESTRSGRRMELSMGPIQANHTGTGLLLTLQPEQKFQKVKGFGGAMTDAAALNILALSPPAQNLLLKSYFSEEGIGYNIIRVPMASCDFSIRTYTYADTPDDFQLHNFSLPEEDTKLKIPLIHRALQLAQRPVSLLASPWTSPTWLKTNGAVNGKGSLKGQPGDIYHQTWARYFVKFLDAYAEHKLQFWAVTAENEPSAGLLSGYPFQCLGFTPEHQRDFIARDLGPTLANSTHHNVRLLMLDDQRLLLPHWAKVVLTDPEAAKYVHGIAVHWYLDFLAPAKATLGETHRLFPNTMLFASEACVGSKFWEQSVRLGSWDRGMQYSHSIITNLLYHVVGWTDWNLALNPEGGPNWVRNFVDSPIIVDITKDTFYKQPMFYHLGHFSKFIPEGSQRVGLVASQKNDLDAVALMHPDGSAVVVVLNRSSKDVPLTIKDPAVGFLETISPGYSIHTYLWRRQ
modifications: imiglucerase
notes: human-derived glucocerebrosidase produced in Chinese hamster ovary cells by gene recombination (Sanofi S. A.), belonging to GH30

Tests used:
[1] = target: T1, RGC1 (Oryza sativa subsp. japonica, UniProt Q8L7J2); assay: Substrate specificity of RGC1: ceramide generated from glucosylceramide or synthetic β-glucoside substrates (Example 3); format: biochemical, rice (Oryza sativa L. cv. Nipponbare); conditions: enzyme RGC1, 12.5 μM substrate, pH 5.5, 37° C., 15 minutes; for Relative activity (%): activity with d18:1(4E)-C8:0-GluCer defined as 100, average of five tests
T1 construct: The resulting solution was used as rice-derived glucocerebrosidase (RGC1); from tissue; host or cells: stems of rice (Oryza sativa L. cv. Nipponbare)
T1 sequence (Q8L7J2 38-521 limits assumed): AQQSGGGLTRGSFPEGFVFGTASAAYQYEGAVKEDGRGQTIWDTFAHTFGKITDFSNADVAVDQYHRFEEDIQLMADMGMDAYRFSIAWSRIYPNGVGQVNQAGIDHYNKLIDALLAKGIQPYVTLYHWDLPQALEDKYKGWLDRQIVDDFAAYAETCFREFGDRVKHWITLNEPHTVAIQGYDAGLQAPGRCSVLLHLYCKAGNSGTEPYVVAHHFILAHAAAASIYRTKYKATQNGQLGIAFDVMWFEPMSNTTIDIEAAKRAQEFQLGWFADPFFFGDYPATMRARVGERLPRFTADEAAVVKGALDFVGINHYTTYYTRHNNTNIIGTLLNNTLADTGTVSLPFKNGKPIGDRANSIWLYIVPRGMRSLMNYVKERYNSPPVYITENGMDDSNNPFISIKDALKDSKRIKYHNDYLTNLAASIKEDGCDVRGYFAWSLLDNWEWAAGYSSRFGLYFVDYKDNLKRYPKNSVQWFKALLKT
Protocol: (§1) The glucocerebrosidase activity of the fraction was measured as follows: a predetermined amount of sample was added to a 50 mM acetate buffer solution (pH 5.5) containing 100 μM glucosylceramide (cerebroside B), 0.1% Tween 20, and 0.05% sodium cholate, and incubated at 37° C. for 15 minutes. Subsequently, a 4-fold amount of ethanol was added to the obtained reaction solution, mixed therewith, and then centrifuged at 15000 rpm for 20 minutes. The centrifuged supernatant was subjected to high-performance liquid chromatography analysis. In the high-performance liquid chromatography analysis, the sample was injected to TSKgel ODS-120T column (4.6 mm×30 cm), and a solvent having an ethanol concentration of 83% was flowed at a flow rate of 0.8 mL/min, followed by detection in a UV detector (ultraviolet absorption wavelength: 215 nm) to thereby measure the amount of ceramide newly generated through enzymatic reaction. The amount of ceramide was determined by using, as a standard, ceramide generated from cerebroside B by imiglucerase (manufactured by Sanofi S. A.), human-derived glucocerebrosidase. The molecular weight of the generated ceramide was examined by negative LC-MS (manufactured by Agilent Technologies, Inc.) to thereby confirm that it was ceramide generated from cerebroside B (ESI-MS m/z: 564.5[M-H]^−). Glucocerebrosidase activity per mL of the enzyme solution was calculated when the amount of the enzyme that generated 1 μmol of ceramide for 1 minute in the enzymatic reaction solution was defined as 1 unit (U).
RGC1 obtained in Example 2 was added to 12.5 μM glucosylceramide (one of the 12 animal-derived, plant-derived, or filamentous fungus-derived ones in Table 2 below) or synthetic β-glucoside, and a 50 mM acetate buffer solution (pH 5.5) containing 0.1% Tween 20 and 0.05% sodium cholate, and incubated at 37° C. for 15 minutes. Subsequently, a 4-fold amount of ethanol was added to the obtained reaction solution, mixed therewith, and then centrifuged under a condition of 15000 rpm for 20 minutes. The amount of ceramide in the supernatant was measured by high-performance liquid chromatography using various reverse-phase columns to thereby determine glucocerebrosidase activity. The amount of ceramide was determined by using, as a standard, ceramide generated from the glucosylceramide by imiglucerase. The glucocerebrosidase activity was determined as relative activity when activity in the case of using animal-derived glucosylceramide d18:1(4E)-C8:0-GluCer as a substrate was defined as 100 (rightmost column of Table 2 below). This test was conducted five times, and average relative activity was determined therefrom.

[2] = Thermostability: relative residual glucocerebrosidase activity after incubation at pH 5 and pH 7 (Examples 6, 13); format: physicochemical; conditions: 45° C.; pH 5 for 1 to 31 hours, pH 7 for 0.3 to 5 hours; FIGS. 3 and 4
Protocol: The glucocerebrosidase activity of the fraction was measured as follows: a predetermined amount of sample was added to a 50 mM acetate buffer solution (pH 5.5) containing 100 μM glucosylceramide (cerebroside B), 0.1% Tween 20, and 0.05% sodium cholate, and incubated at 37° C. for 15 minutes. Subsequently, a 4-fold amount of ethanol was added to the obtained reaction solution, mixed therewith, and then centrifuged at 15000 rpm for 20 minutes. The centrifuged supernatant was subjected to high-performance liquid chromatography analysis. […] The amount of ceramide was determined by using, as a standard, ceramide generated from cerebroside B by imiglucerase (manufactured by Sanofi S. A.), human-derived glucocerebrosidase. […] Glucocerebrosidase activity per mL of the enzyme solution was calculated when the amount of the enzyme that generated 1 μmol of ceramide for 1 minute in the enzymatic reaction solution was defined as 1 unit (U).
RGC1 obtained in Example 2 and imiglucerase were each incubated at pH 5 simulating lysosome (50 mM acetate buffer solution (pH 5.0) containing 0.1% Triton X-100 and 0.05% sodium cholate) at 37° C. for 6 to 106 hours or at pH 7 simulating cytoplasm (50 mM potassium phosphate buffer solution (pH 7.0) containing 0.1% Triton X-100 and 0.05% sodium cholate) at 37° C. for 4 to 48 hours. […] This test was conducted three times, and an average value was determined therefrom. […]

[3] = Optimum temperature for glucocerebrosidase activity (Examples 5, 12, 20); format: biochemical
Protocol: as §1
RGC1 obtained in Example 2 and imiglucerase were each added to a 50 mM acetate buffer solution (pH 5.5) containing 100 μM glucosylceramide (cerebroside B), 0.1% Tween 20, and 0.05% sodium cholate, and incubated at each temperature for 15 minutes. Subsequently, a 4-fold amount of ethanol was added to the obtained reaction solution, mixed therewith, and then centrifuged under a condition of 15000 rpm for 20 minutes. The supernatant was subjected to high-performance liquid chromatography analysis to measure the amount of ceramide generated through enzymatic reaction. The high-performance liquid chromatography analysis was carried out in the same manner as in Example 2. The amount of ceramide and enzymatic activity were also calculated in the same manner as in Example 2. A temperature that attained the highest glucocerebrosidase activity was regarded as the optimum temperature. This test was conducted three times, and an average value was determined therefrom.
The optimum temperatures for the glucocerebrosidase activity of SGC1 obtained in Example 11 and imiglucerase were confirmed by the same method as in Example 5.
Enzyme extracts derived from various plants which were obtained in accordance with Example 19, the purified rice-derived RGC1 mentioned above and the purified soybean-derived SGC1 mentioned above were each added to a 50 mM sodium acetate buffer solution (pH 5.5) containing 100 μM glucosylceramide (cerebroside B), 0.1% Tween 20, and 0.05% sodium cholate, and incubated at each temperature for 15 minutes. Subsequently, a 4-fold amount of ethanol was added to the obtained reaction solution, mixed therewith, and then centrifuged at 15000 rpm for 20 minutes. The supernatant was subjected to high-performance liquid chromatography analysis to measure the amount of ceramide generated through enzymatic reaction. The high-performance liquid chromatography analysis was carried out in the same manner as in Example 5. The amount of ceramide and enzymatic activity were also calculated in the same manner as in Example 5. As a result, a temperature that attained the highest glucocerebrosidase activity was regarded as the optimum temperature. This test was conducted three times, and an average value was determined therefrom.

[4] = Example 12, same method as Example 5
[5] = Example 20, 100 μM cerebroside B, pH 5.5, 15 minutes at each temperature, average of three tests

Molecule | Relative activity (%) [1] | reaction of RGC1 with the substrate (in words) [1] | Optimum temperature (° C.) [3, 4] | Optimum temperature (° C.) [3, 5] | other results
CCCCCCCCCCCCCC[C@@H](O)C(=O)N[C@@H](CO[C@@H]1O[C@H](CO)[C@@H](O)[C@H](O)[C@H]1O)[C@H](O)/C=C/CC/C=C(\C)CCCCCCCCC [d19:2(4E,8E,9Me)-C16h:0-GluCer, (4E,8E)-N-D-2′-hydroxypalmitoyl-1-O-β-D-glucopyranosyl-9-methyl-4,8-sphingadienine] | 116.7% |  |  |  | 
O=[N+]([O-])c1ccc(O[C@@H]2O[C@H](CO)[C@@H](O)[C@H](O)[C@H]2O)cc1 [pNP-β-glucoside, 4-nitrophenyl-β-D-glucopyranoside] | 2.5% | rarely reacted |  |  | 
CCCCCCCCCCCCC/C=C/[C@@H](O)[C@H](CO[C@@H]1O[C@H](CO)[C@@H](O[C@@H]2O[C@H](CO)[C@H](O)[C@H](O[C@]3(C(=O)O)C[C@H](O)[C@@H](NC(C)=O)C([C@H](O)[C@H](O)CO)O3)[C@H]2O)[C@H](O)C1O)NC(=O)CCCCCCCCCCCCCCCCC (some centres unmarked) [d18:1(4E)-C18:0-GM3] |  | rarely reacted |  |  | 
CCCCCCCCCCCCCC/C=C/[C@@H](O)C(=O)N[C@@H](CO[C@@H]1O[C@H](CO)[C@@H](O)[C@H](O)[C@H]1O)[C@H](O)/C=C/CC/C=C(\C)CCCCCCCCC [d19:2(4E,8E,9Me)-C18h:1-GluCer, (4E,8E)-N-D-2′-hydroxy-(E)-3′-octadecenoyl-1-O-β-D-glucopyranosyl-9-methyl-4,8-sphingadienine] | 113.2% |  |  |  | 
B1 |  |  | 64.0 °C | 64.0 °C | stability (relative residual activity) compared with imiglucerase [2]: evidently much superior in stability to imiglucerase
B2 |  |  | 42.5 °C | 42.5 °C | Optimum temperature (° C.) ([3]; Example 5, 100 μM cerebroside B, pH 5.5, 15 minutes at each temperature, average of three tests): 42.5 °C
